Source: publication PMC4456606, “A conserved histidine modulates HSPB5 structure to trigger chaperone activity in response to stress-related acidosis” (eLife, 2015)
Substitutions are numbered along the chain they refer to. Names and notes keep the numbering of the source.

B1: WT-HSPB5 (full-length HSPB5, alphaB-crystallin) (natural protein, human, UniProt P02511 1-175, looked up)
chain: MDIAIHHPWIRRPFFPFHSPSRLFDQFFGEHLLESDLFPTSTSLSPFYLRPPSFLRAPSWFDTGLSEMRLEKDRFSVNLDVKHFSPEELKVKVLGDVIEVHGKHEERQDEHGFISREFHRKYRIPADVDPLTITSSLSSDGVLTVNGPRKQVSGPERTIPITREEKPAVTAAPKK
notes: HSPB5 (alphaB-crystallin), human, full length; Forms polydisperse oligomers; also called αB-crystallin; source: expressed and purified as described previously (Jehle et al., 2009)
B2: H104Q-HSPB5 (full-length HSPB5 with His-104 replaced by Gln) (natural protein, human, UniProt P02511 1-175, looked up)
chain: B1 chain with H104Q
notes: HSPB5 (alphaB-crystallin), human, full length, with H104Q; source: growth and purification similar to that of wild-type proteins (Jehle et al., 2009)
B3: bovine αLactalbumin (natural protein, UniProt P00711 20-142, looked up)
chain: EQLTKCEVFRELKDLKGYGGVSLPEWVCTTFHTSGYDTQAIVQNNDSTEYGLFQINNKIWCKDDQNPHSSNICNISCDKFLDDDLTDDIMCVKKILDKVGINYWLAHKALCSEKLDQWLCEKL
notes: alpha-lactalbumin, bovine, Sigma L6010; Model client protein; source: bought: Sigma (L6010)
B4: H104K-HSPB5 (full-length HSPB5 with His-104 replaced by Lys) (natural protein, human, UniProt P02511 1-175, looked up)
chain: B1 chain with H104K
notes: HSPB5 (alphaB-crystallin), human, full length, with H104K; source: growth and purification similar to that of wild-type proteins (Jehle et al., 2009)
B5: HSPB5-ACD (alpha-crystallin domain of HSPB5, residues 64-152) (domain or fragment, human, UniProt P02511 64-152, looked up)
chain: GLSEMRLEKDRFSVNLDVKHFSPEELKVKVLGDVIEVHGKHEERQDEHGFISREFHRKYRIPADVDPLTITSSLSSDGVLTVNGPRKQV
notes: HSPB5 (alphaB-crystallin), human, alpha-crystallin domain, residues 64-152; 15N- or 13C,15N-labelled for the NMR experiments; also called WT-ACD; WT-HSPB5-ACD; source: expressed and purified as described previously (Jehle et al., 2009)
B6: H104Q-ACD (HSPB5-ACD with His-104 replaced by Gln) (domain or fragment, human, UniProt P02511 64-152, looked up)
chain: B5 chain with H41Q
notes: HSPB5 (alphaB-crystallin), human, alpha-crystallin domain, residues 64-152, with H104Q; source: growth and purification similar to that of wild-type proteins (Jehle et al., 2009)
B7: H104K-ACD (HSPB5-ACD with His-104 replaced by Lys) (domain or fragment, human, UniProt P02511 64-152, looked up)
chain: B5 chain with H41K
notes: HSPB5 (alphaB-crystallin), human, alpha-crystallin domain, residues 64-152, with H104K; source: growth and purification similar to that of wild-type proteins (Jehle et al., 2009)

Columns and labels:
[1] = molecular target: the molecule itself; assay: SEC-MALS; 40 μM subunits, equilibrated at 37°C for at least 60 min; 50 mM sodium phosphate pH 6.5, 100 mM NaCl, 1 mM DTT; size of the oligomers
[2] = molecular target: the molecule itself; assay: SEC-MALS; 40 μM subunits, pre-incubated at 37°C for 30 min; 50 mM sodium phosphate pH 7.5, 100 mM NaCl, 1 mM DTT; size of the oligomers
[3] = molecular target: B4; assay: SEC-MALS; HSPB5 (40 μM subunits) pre-incubated with αLac (240 μM in the methods, 120 μM in the legend) at 37°C, pH 7.5, 10 min, then 50 mM DTT for 50 min, filtered and injected; SDS-PAGE of peak fractions; conditions: both partners purified
[4] = molecular target: B2; assay: as above; conditions: both partners purified
[5] = molecular target: B1; assay: SEC-MALS; WT- and H104K-HSPB5 incubated together at ratios 1:0, 2:1, 1:1, 1:2, 0:1; mixed oligomers; conditions: both partners purified
[6] = molecular target: the molecule itself; assay: ITC; dilution ITC, 1 mM WT-ACD, dimer to monomers; 25°C, pH 6.5, 50 mM sodium phosphate, 100 mM NaCl
[7] = molecular target: the molecule itself; assay: ITC; dilution ITC, 1 mM WT-ACD, dimer to monomers; 25°C, pH 7.5, 50 mM sodium phosphate, 100 mM NaCl
[8] = molecular target: the molecule itself; assay: 15N-CPMG relaxation dispersion NMR; 700 and 200 μM ACD, pH 7.5, 37°C; global fit of dimer interface residues; rate constants worked out with the KD of 36 μM from ITC; dimer to monomers
[9] = molecular target: the molecule itself; assay: ITC; dilution ITC, 1 mM WT-ACD, dimer to monomers; 37°C, pH 7.5, 50 mM sodium phosphate, 100 mM NaCl
[10] = molecular target: the molecule itself; assay: 1H-15N HSQC NMR; 200 μM ACD, pH 7.5, 22°C, NMR buffer; populations of dimer and monomer peaks; dimer to monomers

Question: Which “stoichiometry N” value [1] does the source give for B1 here?
Answer: Its value is ~36 subunits per oligomer.

Question: What about the “stoichiometry N” value [2] of the same binder?
Answer: Its value is ~24 subunits.

Question: Does B2 bind [2]?
Answer: Result: binds

Question: What does the source list for B3?
Answer: binding result [3]: binds; binding result [4]: binds

Question: Does B4 bind [5]?
Answer: Result: binds

Question: What about the “stoichiometry N” value [2] of the same binder?
Answer: The value was ~41 subunits.

Question: B5 was tested. Which Kd [6] did it give?
Answer: The Kd was 30 ± 16 µM.

Question: What about the dH [6] of the same binder?
Answer: Its dH is 3.24 ± 0.432 kcal/mol.

Question: What about the Kd [7] of the same binder?
Answer: Its Kd is 2 ± 2 µM.

Question: What about the dH [7] of the same binder?
Answer: The dH was 8.77 ± 3.96 kcal/mol.

Question: And the koff [8]?
Answer: The koff was 400 s⁻¹.

Question: What about the kon [8] of the same binder?
Answer: The kon was 1.1e+07 M⁻¹ s⁻¹.

Question: What about the Kd [9] of the same binder?
Answer: The Kd was 36 ± 2 µM.

Question: And the dH [9]?
Answer: Its dH is 9.33 ± 0.527 kcal/mol.

Question: For B6, which Kd [10] is on record?
Answer: Its Kd is 100 to 500 µM.

Question: B7 was tested. Which Kd [10] did it give?
Answer: Its Kd is > 1000 µM.
